# Literature values as cited in publication PMC9085562.
# Legend:
# [1] = biological target: H3K9me1 peptide (Homo sapiens) (UniProt P68431)
# [2] = biological target: H3K9me3 peptide (Homo sapiens) (UniProt P68431); test: fluorescence polarization
substance,measurement,setting,value
Cbx1 (from UniProt P83916),Kd,[1],12.5 µM
same,Kd,[2],3.2 µM
